Results on 17 substances are retold here after patent US20190142860A1, “NUCLEIC ACID BASED TIA-1 INHIBITORS” (Aquinnah Pharmaceuticals, Inc., priority 2015, published 2019).

Assay [1] addresses Nucleolysin TIA-1 (endogenous mouse TIA1) (mouse) (UniProt P52912). As to the kind of experiment: TIA1 IP-MS, tau KO 3 cortex.
Assay [2] has the same target. The assay can be described thus: TIA1 IP-MS, tau KO 1 cortex.
Assay [3] has the same target. As to the kind of experiment: TIA1 IP-MS, WT2 cortex.
Assay [4] has the same target. As to the kind of experiment: TIA1 IP-MS, WT1 cortex.
The target is the same in assay [5]. As to the kind of experiment: TIA1 IP-MS, WT3 cortex.
For assay [6] the target is unchanged. The assay can be described thus: TIA1 IP-MS, tau KO 2 cortex.

Chain of UniProt P52912 (P52912 whole entry): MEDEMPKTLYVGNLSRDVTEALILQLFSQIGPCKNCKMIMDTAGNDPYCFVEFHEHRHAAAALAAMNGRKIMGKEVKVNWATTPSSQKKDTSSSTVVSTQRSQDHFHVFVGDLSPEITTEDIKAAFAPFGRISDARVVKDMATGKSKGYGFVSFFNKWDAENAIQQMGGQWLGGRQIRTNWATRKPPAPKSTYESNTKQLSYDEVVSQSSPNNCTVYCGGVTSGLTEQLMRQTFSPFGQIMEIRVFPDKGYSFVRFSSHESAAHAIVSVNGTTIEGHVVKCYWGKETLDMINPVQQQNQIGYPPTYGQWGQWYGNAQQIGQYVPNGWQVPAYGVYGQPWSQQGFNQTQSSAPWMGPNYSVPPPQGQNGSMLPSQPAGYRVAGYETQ

In the case of “RNA-binding protein EWS (from UniProt Q61545 1-655)”, the total ion current (normalized to TIA1 = 1000) stood at 0 in assay [1]; 0 in assay [2]; 32.5 in assay [3]; 6.73 in assay [4]; 0 in assay [5]; 0 in assay [6].

For “Rabphilin-3A (from UniProt P47708 1-681)”, the total ion current (normalized to TIA1 = 1000) in assay [1] worked out at 0; in assay [2], 17; in assay [3], 40.4; in assay [4], 0; in assay [5], 0; in assay [6], 0.

For the substance “Ras-related protein Rab-5A (from UniProt Q9CQD1 1-215)”, the total ion current (normalized to TIA1 = 1000) in assay [1] came out at 0; in assay [2], 0; in assay [3] it was 126; in assay [4], 0; in assay [5], 302; in assay [6] it was 185.

Turning to Septin-5 (from UniProt Q9Z2Q6 1-369), the total ion current (normalized to TIA1 = 1000) in assay [1] is 0; in assay [2] it was 0; in assay [3] it was 194; in assay [4], 0; in assay [5], 114; in assay [6] it was 85.5.

On to “Serine protease HTRA1 (from UniProt Q9R118 23-480)”, for which the total ion current (normalized to TIA1 = 1000) in assay [1] is 0; in assay [2], 7.66; in assay [3], 0; in assay [4] it was 5.71; in assay [5], 0; in assay [6], 0.

Take “Serine--tRNA ligase, cytoplasmic (from UniProt P26638 1-512)”: the total ion current (normalized to TIA1 = 1000) in assay [1] came to 0; in assay [2], 0; in assay [3], 65.8; in assay [4], 0; in assay [5], 0; in assay [6] it was 0.

With “Serine/arginine-rich splicing factor 2 (from UniProt Q62093 2-221)”, the total ion current (normalized to TIA1 = 1000) was found to be 0 in assay [1]; 0 in assay [2]; 306 in assay [3]; 0 in assay [4]; 71.1 in assay [5]; 67.1 in assay [6].

For the substance “Serine/arginine-rich splicing factor 4 (from UniProt Q8VE97 1-489)”, the total ion current (normalized to TIA1 = 1000) in assay [1] was 0; in assay [2], 0; in assay [3] it was 41.6; in assay [4], 0; in assay [5] it was 0; in assay [6] it was 0.

Take “Serine/threonine-protein phosphatase PP1-beta catalytic subunit (from UniProt P62141 2-327)”: the total ion current (normalized to TIA1 = 1000) in assay [1] was 0; in assay [2], 99.4; in assay [3] it was 136; in assay [4] it was 3.65; in assay [5] it was 79.5; in assay [6], 24.6.

As for “Sodium/potassium-transporting ATPase subunit beta-2 (from UniProt P14231 1-290)”, the total ion current (normalized to TIA1 = 1000) in assay [1] was 0; in assay [2], 0; in assay [3], 15.1; in assay [4] it was 0; in assay [5], 25.3; in assay [6], 30.7.

Take “Solute carrier family 2, facilitated glucose transporter member 3 (from UniProt P32037 1-493)”: the total ion current (normalized to TIA1 = 1000) in assay [1] amounted to 0; in assay [2], 0; in assay [3] it was 107; in assay [4] it was 0; in assay [5], 190; in assay [6], 90.2.

With “Sorting and assembly machinery component 50 homolog (from UniProt Q8BGH2 1-469)”, the total ion current (normalized to TIA1 = 1000) in assay [1] stood at 0; in assay [2] it was 0; in assay [3], 22.7; in assay [4], 0; in assay [5] it was 0; in assay [6] it was 0.

On to “Splicing factor 45 (from UniProt Q8JZX4 2-405)”, for which the total ion current (normalized to TIA1 = 1000) in assay [1] was 0; in assay [2], 0; in assay [3], 0; in assay [4] it was 1.59; in assay [5], 0; in assay [6], 0.

With “Splicing factor U2AF 65 kDa subunit (from UniProt P26369 2-475)”, the total ion current (normalized to TIA1 = 1000) in assay [1] was 0; in assay [2] it was 0; in assay [3], 162; in assay [4], 0; in assay [5], 0; in assay [6], 107.

“Stress-70 protein, mitochondrial (from UniProt P38647 47-679)”: the total ion current (normalized to TIA1 = 1000) is 0 in assay [1]; 0 in assay [2]; 173 in assay [3]; 0 in assay [4]; 77.5 in assay [5]; 101 in assay [6].

“Succinyl-CoA ligase [ADP-forming] subunit beta, mitochondrial (from UniProt Q9Z2I9 54-463)”: the total ion current (normalized to TIA1 = 1000) in assay [1] was 0; in assay [2] it was 0; in assay [3], 61.7; in assay [4], 0; in assay [5] it was 86.3; in assay [6] it was 49.

On to “Succinyl-CoA ligase [ADP/GDP-forming] subunit alpha, mitochondrial (from UniProt Q9WUM5 35-346)”, for which the total ion current (normalized to TIA1 = 1000) amounted to 0 in assay [1]; 0 in assay [2]; 204 in assay [3]; 0 in assay [4]; 54.8 in assay [5]; 26.9 in assay [6].
